Data published in PMC5117717.

Assays:
[1] = target: ChimRAD51 (archeal human chimeric RadA/RAD51/RadA protein) (Pyrococcus furiosus | human) (UniProt O74036); assay: ITC; 25 °C; ChimRAD51 dialysed against 20 mM K/phosphate (pH 8.0) and 192 mM KCl
[2] = target: HumRadA33 (Pyrococcus furiosus) (UniProt O74036); assay: ITC; 25 °C; peptide titrated into protein; 50 mM Tris–HCl (pH 8.5), 250 mM NaCl, 5 mM MgCl2; single-site model
[3] = target: Alexa Fluor 488-labelled BRC4 peptide (human); assay: fluorescence polarisation; direct binding; 10 nM Alexa Fluor 488-labelled BRC4 peptide constant, protein titrated; 25 °C, 100 mM Tris (pH 7.5), 200 mM KCl, 1.25% glycerol; single-site fit
[4] = target: HumRadA1 (first humanised RadA protein) (Pyrococcus furiosus) (UniProt O74036); assay: ITC; 25 °C; peptide titrated into protein; single-site model; the buffer for HumRadA1 is not listed
[5] = target: HumRadA2 (Pyrococcus furiosus) (UniProt O74036); assay: ITC; 25 °C; peptide titrated into protein; 50 mM Tris–HCl (pH 7.5), 150 mM NaCl, 5 mM MgCl2; single-site model
[6] = target: unlabelled BRC4 repeat (E. coli-produced); assay: DSF (thermal shift); settings: read off a plot
[7] = target: ATP-Mg2+; assay: DSF (thermal shift); settings: read off a plot
[8] = target: RadA oligomerisation peptide; assay: DSF (thermal shift); settings: read off a plot

Row | Kd [2] | Kd [4] | other: ΔT (DSF thermal shift on ligand addition) [6] | other results | Substance
1 | 33 nM | – | – | stoichiometry N [1]: 1 | unlabelled BRC4 repeat (E. coli-produced) (peptide)
2 | – | – | – | Kd [3]: 4 nM | ChimRAD51 (archeal human chimeric RadA/RAD51/RadA protein) (from UniProt O74036 108-165; Q06609 156-261; O74036 278-349)
3 | 14000 nM | 1800 nM | – | Kd [5]: 3400 nM | RadA oligomerisation peptide
4 | 800 nM | 24000 nM | – | – | RAD51 oligomerisation peptide
5 | – | – | 0.3 °C | – | PfRadA monomeric C-terminal ATPase domain (from residue 108, L2 loop deleted) I169M; Y201A; V202Y; E219S; D220A; K221M
6 | – | – | 0.15 °C | other: ΔT (DSF thermal shift on ligand addition) [7]: 6.1 °C; other: ΔT (DSF thermal shift on ligand addition) [8]: 2.7 °C | PfRadA monomeric C-terminal ATPase domain (from residue 108, L2 loop deleted) I169M; Y201A; V202Y; L213Q; V215L; Q216Y; E219S; D220A; K221M; D267M; L274E; Y275F
